Reference: paper PMC2880568 (PLoS Pathogens, 2010)

Tests used:
Conditions in all cases: both partners purified
[1] = biological target: T1, EloBC (elongin B - elongin C heterodimer) (UniProt Q15370 1-118; Q15369 16-111); test: NMR titration
T1 construct: also called EloB-EloC heterodimer; full length EloBC

[2] = biological target: T1, EloBC (elongin B - elongin C …); test: SEC
[3] = biological target: T1, EloBC (elongin B - elongin C …); test: ITC

T1 sequence (Q15370 whole entry, chain 1 of 2): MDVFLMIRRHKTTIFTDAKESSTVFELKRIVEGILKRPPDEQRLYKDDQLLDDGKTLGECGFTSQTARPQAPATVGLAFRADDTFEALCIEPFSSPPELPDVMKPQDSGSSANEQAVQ
T1 sequence (Q15369 16-111, chain 2 of 2): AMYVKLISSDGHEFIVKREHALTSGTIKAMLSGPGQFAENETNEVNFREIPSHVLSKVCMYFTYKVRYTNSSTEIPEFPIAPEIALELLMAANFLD

B1: wild type Vif SOCS-box protein (domain or fragment)
chain: not shown
notes: source: E. coli BL21(DE3), purified (Ni-NTA, Superdex 75)
[1]
  KD fitted to the peak of EloB Asp-101: 1710 nM
  KD fitted to the peak of EloB Lys-104: 3560 nM
  KD fitted to the peak of EloB Met-103: 1730 nM
  KD fitted to the peak of EloB Val-102: 430 nM
[2]
  stoichiometry N: 1
[3]
  Kd: 1200 nM

B2: ΔPPL Vif SOCS-box protein (domain or fragment)
chain: HNKVGSLQYLALAALITPKKIKAAAPSVTKLTEDRWNK
notes: as for B1
[3]
  Kd: 1250 nM
